Consider two molecules from patent US20030091568A1, “Inhibitors for the formation of soluble human CD23” (priority 2000, published 2003).

One assay has as its target T1, ADAM9 (Homo sapiens, UniProt Q13443).
T1 construct: endogenous in cells
T1 sequence (Q13443 29-819): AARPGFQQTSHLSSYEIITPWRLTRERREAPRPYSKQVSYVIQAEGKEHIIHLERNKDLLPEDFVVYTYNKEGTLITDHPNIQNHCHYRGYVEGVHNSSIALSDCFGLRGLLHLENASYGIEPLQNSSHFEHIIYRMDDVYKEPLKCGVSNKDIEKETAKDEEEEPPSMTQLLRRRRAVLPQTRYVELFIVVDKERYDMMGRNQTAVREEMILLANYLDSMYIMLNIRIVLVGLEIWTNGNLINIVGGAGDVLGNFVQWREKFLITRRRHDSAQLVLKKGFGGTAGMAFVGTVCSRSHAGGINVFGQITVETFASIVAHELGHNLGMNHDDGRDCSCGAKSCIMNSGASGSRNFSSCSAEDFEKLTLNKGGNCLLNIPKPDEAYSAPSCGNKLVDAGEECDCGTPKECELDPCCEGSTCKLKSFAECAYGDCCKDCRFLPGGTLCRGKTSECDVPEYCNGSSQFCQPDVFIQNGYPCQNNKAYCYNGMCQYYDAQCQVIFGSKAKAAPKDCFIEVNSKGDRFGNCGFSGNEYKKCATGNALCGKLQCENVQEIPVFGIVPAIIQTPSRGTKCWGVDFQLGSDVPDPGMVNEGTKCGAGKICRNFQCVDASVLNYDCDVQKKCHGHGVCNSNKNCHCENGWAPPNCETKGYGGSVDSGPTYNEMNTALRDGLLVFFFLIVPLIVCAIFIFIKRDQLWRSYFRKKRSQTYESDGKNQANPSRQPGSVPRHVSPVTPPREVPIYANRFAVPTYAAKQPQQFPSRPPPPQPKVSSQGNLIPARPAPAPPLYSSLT
As to the kind of experiment: Shedding of CD23 from human B cell line P493-6 (c-myc "On", endogenous ADAM9). In kind it is cell-based. To be noted: TIMP concentrations known to inhibit MMPs, MT-MMPs, ADAM10 and ADAM17, FIG. 6a. The source says: TIMP-1, -2 and -3 are known to inhibit all known secreted matrix metalloproteinases (MMPs), membrane-type matrix metalloproteinases (MT-MMPs), as well as ADAM10 (inhibited by TIMP-1 and TIMP-3) and ADAM17 (TACE, inhibited by TIMP-3 only). In contrast, it has been shown that membrane bound ADAM9 is not inhibited by either TIMP-1, -2 or -3 (see Example 3, FIG. 3). Using the human B cell line P493-6 with a tetracycline regulatable c-myc gene allowed the upregulation of endogeneous ADAM9 via upregulation of c-myc. […] The decrease in cell surface bound CD23 correlated with the increase in the s-CD23 concentration in the culture medium assayed by ELISA (CD23 ELISA kit, Becton Dickinson, and CD23 ELISA kit, the Binding Site). […]
To inhibit matrix metalloproteinase activity, aliquots of the cells studied (transfected CHO AA8, […]) were washed three-times in serum free medium and further cultured either in the presence (1 μM TC) or absence of TC for 24-48 h, either in the presence of 2 μM batimastat (BB-94, British Biotechnology) or 20 nM-1 μM of either TIMP-1, -2, or TIMP-3. […] Surface CD23 in the presence of either of the inhibitors was quantitated by FACS analyses using a FITC-labelled monoclonal antibody against human CD23 and compared to cells cultured in the absence of the respective inhibitor. […]

A further assay has as its target ADAM17 (TACE) (Homo sapiens, UniProt P78536). To be noted: stated as known; cited from earlier work.

ADAM17 (TACE), sequence (P78536 215-824, species assumed): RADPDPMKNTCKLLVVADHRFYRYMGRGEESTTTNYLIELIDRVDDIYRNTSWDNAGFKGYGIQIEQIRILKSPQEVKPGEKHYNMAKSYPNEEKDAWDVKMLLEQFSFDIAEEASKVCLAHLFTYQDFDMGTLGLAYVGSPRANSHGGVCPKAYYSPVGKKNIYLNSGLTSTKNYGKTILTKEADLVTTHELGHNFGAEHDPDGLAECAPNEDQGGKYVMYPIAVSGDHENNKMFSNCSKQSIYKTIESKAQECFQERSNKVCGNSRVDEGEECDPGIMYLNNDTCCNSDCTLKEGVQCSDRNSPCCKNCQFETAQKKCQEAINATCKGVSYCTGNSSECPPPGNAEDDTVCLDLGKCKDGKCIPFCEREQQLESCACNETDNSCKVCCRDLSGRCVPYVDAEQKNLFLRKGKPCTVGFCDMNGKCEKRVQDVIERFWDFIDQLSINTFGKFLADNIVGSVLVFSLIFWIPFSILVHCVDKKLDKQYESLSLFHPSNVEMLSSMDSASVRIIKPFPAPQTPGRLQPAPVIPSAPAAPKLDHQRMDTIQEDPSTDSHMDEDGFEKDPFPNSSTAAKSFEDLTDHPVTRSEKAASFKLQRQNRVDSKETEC

Regarding “TIMP-1: tissue inhibitor of metalloproteinases 1”, in the assay with ADAM9, the “inhibition of CD23 shedding (s-CD23 in culture medium, ELISA)” value is given as “could not be inhibited”.

B1: TIMP-3: tissue inhibitor of metalloproteinases 3 (protein, UniProt P35625 24-211, looked up)
Metalloproteinase inhibitor 3: CTCSPSHPQDAFCNSDIVIRAKVVGKKLVKEGPFGTLVYTIKQMKMYRGFTKMPHVQYIHTEASESLCGLKLEVNKYQYLLTGRVYDGKMYTGLCNFVERWDQLTLSQRKGLNYRYHLGCNCKIKSCYYLPCFVTSKNECLWTDMLSNFGYPGYQSKHYACIRQKGGYCSWYRGWAPPDKSIINATDP
For B1, the “inhibition of CD23 shedding (s-CD23 in culture medium, ELISA)” value in the assay with ADAM9 is recorded as “could not be inhibited”. In addition, the “inhibition of ADAM17 (TACE)” value with ADAM17 (TACE) is reported as “inhibited”.
